Source: PMC3428623

Target: Pbs2-HKMT (S. cerevisiae) (UniProt P08018)
Assay: proximity labelling

Chain of Pbs2-HKMT (S. cerevisiae) (P08018 whole entry): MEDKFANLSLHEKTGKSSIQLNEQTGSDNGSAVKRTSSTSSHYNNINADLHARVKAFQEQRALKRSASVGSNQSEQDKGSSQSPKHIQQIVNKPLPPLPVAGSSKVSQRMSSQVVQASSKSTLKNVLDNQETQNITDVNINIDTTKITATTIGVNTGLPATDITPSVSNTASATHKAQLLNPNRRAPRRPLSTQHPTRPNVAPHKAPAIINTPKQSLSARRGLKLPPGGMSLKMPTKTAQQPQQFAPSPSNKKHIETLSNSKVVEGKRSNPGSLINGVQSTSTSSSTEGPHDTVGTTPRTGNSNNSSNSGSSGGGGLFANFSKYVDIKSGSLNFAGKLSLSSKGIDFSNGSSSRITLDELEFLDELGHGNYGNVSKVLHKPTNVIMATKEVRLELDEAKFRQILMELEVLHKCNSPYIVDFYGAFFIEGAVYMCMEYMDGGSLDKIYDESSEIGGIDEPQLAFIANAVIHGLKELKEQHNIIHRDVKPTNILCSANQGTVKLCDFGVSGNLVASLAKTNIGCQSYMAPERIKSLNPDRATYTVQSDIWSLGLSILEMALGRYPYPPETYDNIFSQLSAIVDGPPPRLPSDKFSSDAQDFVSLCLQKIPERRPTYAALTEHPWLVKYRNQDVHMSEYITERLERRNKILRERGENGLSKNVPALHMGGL

| Substance | percent reduction in methylation signal in comparison with wild-type Sho1 [%] |
| --- | --- |
| Sho1-H3-HA Y8A mutant (natural protein) | 70 |
| Sho1-H3-HA Y54M mutant (natural protein) | 92 |
